Experiment: yeast display, Sf9 membrane polyspecificity reagent, FACS + sequencing; frameworks hold sequencing errors
How it was run: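 Galactose-induced (36–48 hours) yeast carrying a synthetic nanobody display library were exposed to 10% biotinylated, detergent-solubilized Sf9 membrane reagent at 4 °C for 1 hour. FACS followed streptavidin microbead enrichment, using low and high (top ~1%) gates for expression (anti-HA) and reagent binding (streptavidin). Colony PCR, MiSeq 2 × 250 sequencing and CDR-length filtering followed. Labels for polyreactivity reflect the gate of origin.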

Sequence | polyreactivity (PSR sort gate)
QVQLVESGGGLVQAGGSLRLSCAASGRILWFYAMGWYRQAPGKERELVAAITDSGGSTYYADSVKGRFTISRDNAKNTVYLQMNSLKPEDTAVYYCAADTYYEFQYYVILEYNYWGQGTQVTVSS | low polyreactivity
QVQLVESGGGLVQAGGSLRLSCAASGRIFSYYAMGWYRQAPGKERELVASISRSGGSTYYANSVKGRFTISRDNAKNTVYLQMNSLKPEDTAVYYCNAEARYTGFAYSYFNSDYWGQGTQVTVSS | low polyreactivity
QVQLVESGGGLVQAGGSLRLSCAASGSTFAVYTMGWYRQAPGKERELSTSYADSVKGRFTISRDNAKNTVYLQMNSLKPEDTAVYYCAADYDAWYDDIEYDYWGQGTQVTVSS | low polyreactivity
QVQLVESGGGLVQAGGSLRLSCAASGSTFGAYAMGWYRQAPGKEREFVAGISVRGGSTYYADSVKGRFTISRDNAKNTVYLQMNSLKPEDTAVYYCAARRVDTRFHVRYRYYYWGQGTQVTVSS | high polyreactivity
QVQLEESGGGLVQAGGSLRLSCAASGSILTDNAMGWYRQAPGKERELVAANSYSGASTYYADSVKGRFTISRDNAKNTVYLQMNSLKPEDTAVFYCAARYVSATPQLKARVRYYYWGQGTQVTVSS | high polyreactivity
QVQLVESGGGLVQAGGSLRLSCAASGRTLRRYAMGGYRQAPGKERELVAAISSGVSTNYADSVKGRFTISRDNAKNTVYLQMNSLKPEDTAVYYCNKKRPVYALSIVPYYSWGQGTQVTVSS | high polyreactivity
QVQLVDSGGRLLQAGGSLRLSSAASGLIFKRYAMGWYIQAPGKERELDAAITSGSSTNYADSVKGRFTISRDNAKNTVYLQMNSLKPEDTAVYYCARDVYFSPYYRRSFQWRFDYWGQGTQVTVSS | high polyreactivity
QVQLVESGGGLVQAGGSLRLSCAASGSTFGYNAMGWYRQAPGKERELVAGIRSSGGSTYYADSVKGRFTISRDNAKNTVYLQMNSLKTEDTAVSYCNTRRRRNEKMYYWGQGTQVTVSS | high polyreactivity
QVQLVESGGGLVQAGGSLRLSCAASGSIFYTYAMGWYRQAPGKERELVASITNDDSTNYADSVKGRFTISRDNAKKTVYLQMNSLKPEDTAVYYCADDSNWIYDIEYDYWGQGTQVTVSS | low polyreactivity
QVQLVESGGGLVQAGGSLRLSCAASGSIFTIYAMGWYRQAPGKERELVATITGGGGSTYYADSVKGRFTISRDNAKNTVYLQMNSLKPEDTAVYYCATDFRRTRSYGNSRSYGYWGQGTQVTVSS | low polyreactivity
QVQLVESGGGLVQAGGTLRLSCAASGFTFAVYAMGWYRQAPGKERELVAAISRSGTRTYYADSVKGRFTISRDNSKNPVYIQMNSLKPEDTAVYYCAADKYRNGYDYWGQGTQVTVSS | low polyreactivity
QVQLVESGGGLVQAGGSLRLSCAASGSTFGINAMGWYRQAPGKERDLVAAISSRGGSTYYADSVKGRFTISRDNAKNTVYLLMNSLKPEDTAVYYCAAEFAVSFYWSWLGQDYYYWGQGTQVTVSS | high polyreactivity
QVQLVESGGGLVQAGGSLRLSCAASGRTFGIYAMGWYRQAPGKERELVAAITWSGDSTYYADSVKGRVTISRDNAKNTVYLQMNSLKPEDTAVYYGAADYVGVTSVRYDYWGQGTQVTVSS | low polyreactivity
QVQLVESGGGLVQAGGSLRLSCAASGFTFGVYAMGWYRQAPGKERELVAAISTTVGSTYYADSVKGRFTISRDNAKNTVYLQMNSLKPEDTAVYYCNADGYPDVGAGTYGYWGQGTQVTVSS | low polyreactivity
QVQLVESGGGLVQAGGSLRLSCAASGFTFAKYAMGWYRQAPGKERELVAAISSSGGRTYYADSVQGRFTISRDNAKNTVYLQMNSLKPEDTAVYYCAADFSGPFDYWGQGTQVTVSS | high polyreactivity
QVQLVESVGGLVQAGGSLRLSCAASGIFRQNAMGWYRQAPGKERELVAGISQSGGSTYYADSVKGRFTISRDNAKNTVYLQMNSLKPEDTAVYYCAVVSIWGYDYWGQGTQVTVSS | low polyreactivity
QVQLVESGGGLVQAGGSLRLSGAASGITIKRYAMGWYRQAPGKEREFVATISQSGTSTYYADSVKGRFTISRDNAQNTVYLQMNSLKPEDTAVYYCAADYIGYWYGYYSWGQGTQVTVSS | low polyreactivity
QVQLVESGGGLVQAGGSLRLSCAASGLTFYGYGMGWYRQAPGKERELVASITSGGNTYYADSVKGRFTISRDNAKNTVYLQMNSLKPEDTAVYYCNADDGGPGVVLPTKEYDYWGQGTQVTVSS | low polyreactivity
QVQLVESGGGLVQAGGTLRLSCAASGRIFFTNAMRRYRQASGKESELVAAISKSGARTYYADSVKGRFTISRDNAKNTVYLQMNSLKPEDTAVYYCAGDVSVAGYYYWGEGTQVTVSS | high polyreactivity
QVQLVESGGGLVQAGGSLRLSCAASGSIFGFYAMGWYRQAPGKEREMVAAITRSGDSTYADSVKGRFTISRDNAKNTVYLQMNSLKPEDTAVYYCADDIDRSDVNSESYDYDYWGQGTQVTVSS | low polyreactivity
QVQLLESWGGLVQAGGSLRLSCAASGLIFYRNAMGWYRQAHGKERELVAAISVSGGSTYYADSVKGRFTISRDNAKNTVYLQMNRLKPEDTAVYYCAAKTWRSRGKEMDYWGQGTQVNVSS | high polyreactivity
QVQLVESGGGLVQAGGSLRLSCAASGRIFGWYDMGWYRQAPGKERELVAAISYNGARTYYADSVKGRFTISRDNAKNTVYLQMNSLKPEDTAVYYCARRYYSQYDYWGQGTQVTVSS | high polyreactivity

Sequence | polyreactivity (PSR sort gate)
QVQLVESGGGLVQAGGSLRLSCAATGRIFYPYAMGWYRQAPGKERELVATIRWRGGSTRYADSVKGRFTISRDNAKNTVFLQMNSLKPEDTAVYYCAAGFKVEPTDLYYWGQGTQVTVSS | high polyreactivity
QVQLVESGGGLVQAGGSLRLSCAASGYTFGSYAMGWYRQAPGKERELVAAISGGGSTNYADSVKGRFTISRDNAKNTVYLQMNSLKPEDTAVYYCAAYPYLYPLRFEEYDHWGQGTQVTVSS | low polyreactivity
QVQLVESGGGLVQAGGSLRLSCAASGSTFKYYAMGWYRQAPGKERELVATITWSGTSTNYADSVKGRFTISRDNAKHTVYLQMHSLKPEDTAVYYCAARSKRRNYDYWGQGTQVTVSS | high polyreactivity
QVKLEESGGGLVQAGGSISLSCAASGSIFFWYTMGCYRQAPGKERELVATITGSGSSTTYADSVKGRFTISRDNAKNTVYLQMNSLKPEDTAVYYCAAADIIDHSFTYDYWGQGTQVTVSS | low polyreactivity
QVQLVESGGGLVQAGGSHRFSCAASGRIFYGHVMGWYRQAPGKERELVADISYDGGSTYYADSVKGRFTISRDNAKKTVYLQMNSLNPEDTAVYYGATRFVYRYTFWYYSTEYNYCGQGTQVTVSS | low polyreactivity
QVQLVESGGGLVQAGGSLRLRCAASGRILWWYAMGWYRQAPGKERELVATITYSGGSTYADSVKGRFTISRDNAKNTVYLQMNSLKPEDTAVYYCAARLPLYYGKSDYWGQGTQVTVSS | high polyreactivity
QVQLVESGGGLVQAGGSLRLSCAASGFTFRSNAMGWYRQAPGKERELVAAISYSGDSTYYADSVKGRFTISRDTAKNTVYLQMNSLKPEDTAVYYCAADGYDQWGRVGVYLIWTSYDYWGQGTQVTVSS | high polyreactivity
QVQLVESGGGLVQAGGSLRLSCAASGRILGKYAMGWYRQAPGKERELVAAIRLRGGSTYYADSVKGRFTISRDNAKNTVYLQMNSLKPEDTAVYYCAARYWDRSQAYTYWGQGTQVTVSS | high polyreactivity
QVQLVESVGGLVQAGGSLRLSCAATGRIFHYNAMGWYRQAPGKERELVAAITSSGGTTYYADSVKGRFTISRDIAKNTVYLQMNTLKPEDTAVYYCNAVTSARVNYRGQGTQVTVSS | high polyreactivity
QDQLVESGGGLVQAGGSLRLSCAASGRTFSTYAMGWYRQAHGKERELVARITSSGGSTYFADSVKGRFTISRDNAKNTVYLQMNSLKPEDTAVYYCAADAWSYWGYPYWWGYDYWGQGTQVTVSS | high polyreactivity
QVQLVESGGGLVQAGGSLRLSCAASGRTFHYYAMGWYRQAPGKERELVAAITRGGNTYYADSVKGRFTISRDNAKNTVYLQMNSLKPEDTAVYYCAKTAAVNGGYDYWGQGTQVTVSS | high polyreactivity
QVQLVESGGGLVQAGGSLRLSCAASGRIFVDYVMGWYRQAPGKERELVARITWIGGNTYYADSVKGRFTISRDNAKNTVYLQMKSLKPEETAVYYCNAGLTLLSRRHEGWYGYDYWGQGTQVTVSS | low polyreactivity
QVQLVESGGGLVQAGGSLRLSCAASGSIFDSYANGWSRQAPGKERELVAAISSRGGRTYYADSVKGRFTISRDNAKNTVYLQMNSLKPEDTAVYYCAAGLYRYYWYGFDYWGQGTQVTVSS | high polyreactivity
QDDLVESGGGLVQAGGSLRFRGAASGYTFEKYAMGWKRQAPGKERELFASISWSGGRTRYADSVKGRFTISRDNAKNTDSLQMNSLQPEDTAVDYCAARGAYKSGYNRNEYWGQGTQVTVSS | high polyreactivity
QVQLVESRGGLVQAGGSLRLSCDASGSTIFENVMGWYRQAPGKEREFVAAINTSGGSTYYADSVKGRFTISRDNAKNTVYLQMNSLKPEDTAVYYCARDSYWEMDYWGQGTQVTVSS | low polyreactivity
QDQHVESGGGLVQAGGSLRLSCAASGSTFRKYAMGRSRQAPGKERELVAAISWSGGRTYYADSVKGRFTISRDNAKKTFYLQLNSLKPEDTAVYYCAASIPGTRSDGYWGQGTQVTVSS | high polyreactivity
QVQLVESAGGLVQAGGSLRLSCAASGFTFYRNAIGWYRQEPGTERELVAGITRSGGSTYYADSVKGRLTISRDNAKNTVYLQMNSLKPEDTAVYYCNKAFGGDKYSGTYDYWGQGTQVTVSS | high polyreactivity
QVQLVESGGGLVQAGGSLRLSCAASGITFTFNAMGWYRQAPGKERELVAAITWSGGSTFYADSVKGRFTISRDNAKNTVDLQMNSLKPEDTAVYYCARDTELYVRWLDYWGQGTQVTVSS | low polyreactivity
QVQLVESGGGLVQAGGSLRLSFAASGFTLVGYTMGWYRQAPGKERELVAAINWSGGRTYYADSVKGRFTISRDNAKNTVYLQMNSLKPVDTAVYYCAADSLRYKKYYYWGQGTQVTVSS | high polyreactivity
QVQLVESGGGLVQAGGSLRLSCAASGSTIYPNAMGWYRQAPGKERELVARISRTGGSTYADSVKGRFTISRDNAKNTVYLQMNSLIPEDSAVYYCARSYASFSWLRTKEPYEYWGQGTQVTVSS | low polyreactivity
QVQLVESGGGLVQAGGSLRLSCAASGSIFGRYAMGWYRQAPGKERELVAAITRSGVSTYYADSVKGRFTISRDNAKNTVYLQMNSLKPEDTAVYYCNAYYPIRSSPNGYYYWGQGTQVTVSS | high polyreactivity

Source: the nanobody polyreactivity screen of Harvey et al. (2022)
